Assay results taken from patent US11787839B2, “Targeting α2δ-1-bound glutamate receptors for treating diseases and disorders” (Board of Regents, The University of Texas System, priority 2017, dated 2023).

Key:
[1] = system: cleaved caspase-3; experiment: MCAO: cleaved caspase-3 protein levels in brain tissues; type: in vivo, mouse; details: MCAO mice; cortex, hippocampus, striatum
Source text: (C and D) Original gel images (C, two pairs of samples) and quantification (D) of cleaved caspase-3 protein levels in the cerebral cortex, hippocampus, and striatum from MCAO mice treated with α2δ-1Tat peptide or control peptide (n=8 mice per group). Data are shown as means±SEM. *p<0.05 compared with the sham group. #p<0.05 compared with MCAO+vehicle group or control peptide group in the same brain region (repeated measures ANOVA for panel B; paired Student's t-test for panel D).

[2] = molecular target: T1, NMDARs of spinally projecting PVN neurons (Rattus norvegicus, UniProt P35439+Q00959+Q00960); experiment: Recordings of spinally projecting PVN neurons in rat brain slices (Ang II); type: cell-based
T1 construct: from tissue; host or cells: rat hypothalamic slices containing the PVN (Sprague-Dawley, WKY, SHR) and synaptosomes made from them
T1 sequence (Q00959 20-1464 limits assumed, other chains not shown): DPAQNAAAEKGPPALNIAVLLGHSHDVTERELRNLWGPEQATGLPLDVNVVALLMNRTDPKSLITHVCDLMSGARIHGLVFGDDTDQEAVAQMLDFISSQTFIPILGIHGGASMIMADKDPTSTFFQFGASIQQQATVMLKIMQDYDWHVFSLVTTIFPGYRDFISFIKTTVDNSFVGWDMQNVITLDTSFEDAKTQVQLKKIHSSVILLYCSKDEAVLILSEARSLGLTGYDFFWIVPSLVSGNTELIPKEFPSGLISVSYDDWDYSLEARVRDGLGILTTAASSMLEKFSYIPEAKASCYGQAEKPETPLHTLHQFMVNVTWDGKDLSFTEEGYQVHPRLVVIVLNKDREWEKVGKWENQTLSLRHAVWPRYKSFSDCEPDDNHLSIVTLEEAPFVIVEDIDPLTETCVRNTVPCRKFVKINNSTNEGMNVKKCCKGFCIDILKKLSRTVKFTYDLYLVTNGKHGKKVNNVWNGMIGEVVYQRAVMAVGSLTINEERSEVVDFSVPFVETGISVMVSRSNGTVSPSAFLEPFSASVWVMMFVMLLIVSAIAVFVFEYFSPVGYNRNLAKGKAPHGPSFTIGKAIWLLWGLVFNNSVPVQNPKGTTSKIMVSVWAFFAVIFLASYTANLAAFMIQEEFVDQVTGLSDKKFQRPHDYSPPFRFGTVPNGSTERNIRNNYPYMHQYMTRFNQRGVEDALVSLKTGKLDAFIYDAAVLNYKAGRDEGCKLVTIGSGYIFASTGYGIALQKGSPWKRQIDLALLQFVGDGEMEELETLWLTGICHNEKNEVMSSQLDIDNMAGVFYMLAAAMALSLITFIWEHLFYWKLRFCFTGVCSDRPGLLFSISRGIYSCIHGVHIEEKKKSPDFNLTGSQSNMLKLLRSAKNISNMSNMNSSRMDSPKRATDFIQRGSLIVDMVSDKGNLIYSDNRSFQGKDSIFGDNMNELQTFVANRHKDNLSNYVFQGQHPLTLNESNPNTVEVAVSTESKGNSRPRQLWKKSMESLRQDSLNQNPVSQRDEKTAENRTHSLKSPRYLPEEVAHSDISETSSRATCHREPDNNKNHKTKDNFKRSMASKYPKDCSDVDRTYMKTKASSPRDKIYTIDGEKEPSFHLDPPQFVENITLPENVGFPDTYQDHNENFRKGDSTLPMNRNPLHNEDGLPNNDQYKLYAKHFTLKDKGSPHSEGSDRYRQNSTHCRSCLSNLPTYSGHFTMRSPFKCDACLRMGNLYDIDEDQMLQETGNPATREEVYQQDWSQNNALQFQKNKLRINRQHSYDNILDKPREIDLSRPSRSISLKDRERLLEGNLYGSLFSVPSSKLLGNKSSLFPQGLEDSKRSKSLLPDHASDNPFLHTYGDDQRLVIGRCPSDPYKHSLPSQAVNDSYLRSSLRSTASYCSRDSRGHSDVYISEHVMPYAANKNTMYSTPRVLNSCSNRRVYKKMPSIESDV
T1 sequence (Q00960 27-1482, other chains not shown): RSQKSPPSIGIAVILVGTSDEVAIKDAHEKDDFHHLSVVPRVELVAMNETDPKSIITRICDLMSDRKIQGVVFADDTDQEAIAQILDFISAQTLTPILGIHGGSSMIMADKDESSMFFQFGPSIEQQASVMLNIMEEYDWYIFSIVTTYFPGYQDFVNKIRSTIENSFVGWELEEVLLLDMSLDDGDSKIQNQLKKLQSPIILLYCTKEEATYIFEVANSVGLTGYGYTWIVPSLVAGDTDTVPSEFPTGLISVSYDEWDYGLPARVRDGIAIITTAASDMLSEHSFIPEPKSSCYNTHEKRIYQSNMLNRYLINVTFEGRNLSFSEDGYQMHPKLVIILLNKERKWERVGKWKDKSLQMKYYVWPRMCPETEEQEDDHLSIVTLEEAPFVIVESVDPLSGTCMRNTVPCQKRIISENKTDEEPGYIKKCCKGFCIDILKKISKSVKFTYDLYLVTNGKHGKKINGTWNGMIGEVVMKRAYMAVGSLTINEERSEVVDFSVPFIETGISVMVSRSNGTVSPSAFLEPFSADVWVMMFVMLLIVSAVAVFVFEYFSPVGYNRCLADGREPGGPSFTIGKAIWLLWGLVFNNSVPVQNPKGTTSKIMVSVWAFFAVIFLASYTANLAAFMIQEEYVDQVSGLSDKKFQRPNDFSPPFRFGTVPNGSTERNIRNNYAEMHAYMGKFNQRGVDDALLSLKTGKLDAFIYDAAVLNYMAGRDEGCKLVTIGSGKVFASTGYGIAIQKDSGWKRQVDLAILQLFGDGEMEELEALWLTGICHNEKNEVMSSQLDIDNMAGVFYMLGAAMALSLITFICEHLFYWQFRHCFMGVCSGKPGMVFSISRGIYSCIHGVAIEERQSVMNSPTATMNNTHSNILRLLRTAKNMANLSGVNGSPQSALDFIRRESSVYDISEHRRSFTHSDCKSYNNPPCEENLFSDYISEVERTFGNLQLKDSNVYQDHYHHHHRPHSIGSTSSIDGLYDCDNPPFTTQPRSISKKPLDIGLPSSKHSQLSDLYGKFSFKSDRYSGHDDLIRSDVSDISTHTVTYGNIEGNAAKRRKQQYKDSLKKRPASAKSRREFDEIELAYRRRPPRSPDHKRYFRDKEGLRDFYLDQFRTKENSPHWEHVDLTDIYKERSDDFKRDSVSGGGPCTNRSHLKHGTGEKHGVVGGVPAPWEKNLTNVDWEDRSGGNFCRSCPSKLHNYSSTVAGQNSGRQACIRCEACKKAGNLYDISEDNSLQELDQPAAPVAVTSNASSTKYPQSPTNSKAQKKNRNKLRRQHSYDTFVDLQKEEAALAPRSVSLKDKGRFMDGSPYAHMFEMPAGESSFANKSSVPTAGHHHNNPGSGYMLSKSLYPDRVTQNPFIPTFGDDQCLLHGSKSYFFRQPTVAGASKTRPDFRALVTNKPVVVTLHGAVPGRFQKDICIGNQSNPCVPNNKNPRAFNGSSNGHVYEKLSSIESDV
Source text: Retrograde labeling of spinally projecting PVN neurons: Rats or mice were anesthetized with 2-3% isoflurane, and their spinal cords at the T1-T4 level were exposed through dorsal laminectomy. A fluorescent microsphere suspension (FluoSpheres, 0.04 μm; Molecular Probes, Invitrogen, Eugene, Oreg.) was pressure ejected (Nanoject II Microinjectors, Drummond Scientific Company, Broomall, Pa.) bilaterally into the IML region of the spinal cord in six separate 50-nl injections using a glass micropipette (tip diameter, 20-30 μm). […] The wound was closed with sutures after injection. Animals were returned to their cages for 4-7 days, which was sufficient time to permit the tracer to be retrogradely transported to the PVN. The animals were inspected daily for motor activity, signs of infection, and food and water intake.
Brain slice preparation: Four to seven days after fluorescent tracer injection, the animals were anesthetized with isoflurane and rapidly decapitated. […] Coronal slices (thickness, 300 μm) containing the PVN were cut from the tissue block in the ice-cold aCSF. […] The brain slices were placed in a glass-bottom chamber and continuously perfused with aCSF at 3.0 ml/min at 34° C. maintained by an inline solution heater and temperature controller.
The labeled PVN neurons were briefly identified with the aid of epifluorescence illumination, and whole-cell recordings from labeled PVN neurons were performed under differential interference contrast optics on an upright microscope (BX50 WI; Olympus Optical, Tokyo, Japan). Recordings of postsynaptic currents began 5 min after the whole-cell access was established and the current reached a steady state.
Signals were processed with an […] amplifier (Axon Instruments, Foster City, Calif.). A liquid junction potential of 15 mV (for the potassium gluconate pipette solution) was corrected during off-line analysis.
Postsynaptic NMDAR currents were elicited by puff application of 100 μmol/L NMDA to the recorded neuron using a positive pressure system (4 p.s.i., 50 ms; Toohey Company, Fairfield, N.J.). The tip of the puff pipette was placed 150 μm from the recorded neuron. […] The NMDAR current data presented in the manuscript were the average of 3 consecutive currents elicited by repeated puff NMDA. The neuron was discarded if the current was not stable.
Ang II, losartan, and NMDA were obtained from Sigma (St. Louis, Mo.). The α2δ-1Tat peptide and scrambled control peptide were synthesized by Bio Basic Inc. (Markham, Ontario, Canada) and validated by liquid chromatography and mass spectrometry. […] All drugs were prepared immediately before the experiments and applied to the slice chamber. The brain slices were first pretreated with Ang II, losartan, α2δ-1Tat peptide, or control peptide in the slice incubation chamber before recording. For electrophysiological recording, the treatment agents were immediately removed and the brain slice transferred to a separate recording chamber.

[3] = molecular target: presynaptic NMDARs of spinal lamina II neurons (Rattus norvegicus, UniProt P35439+Q00959+Q00960)
[4] = molecular target: T2, N-type Ca2+ channels (Cav2.2, Cavb1, α2δ-1) (UniProt P54290+Q00975); experiment: VACC (N-type Ca2+ channel) currents in HEK293 cells; type: cell-based; details: HEK293 cotransfected with Cav2.2, Cavb1 and α2δ-1, 60 min
T2 construct: expressed in transfected cells; host or cells: HEK293

[5] = system: SHRs; experiment: PVN microinjection and recording of ABP and RSNA in SHRs; type: in vivo, rat; details: 50 pmol
Method: PVN microinjection and recording of renal sympathetic nerve activity: Rats were anaesthetized via i.p. administration of a mixture of α-chloralose (60 mg kg-1) and urethane (800 mg kg-1) and mechanically ventilated with trachea cannulation. The arterial blood pressure (ABP) was monitored via a catheter placed in the left femoral artery, and heart rate (HR) was extracted from the pulsatile pressure wave. A retroperitoneal incision was made, and a branch of the left renal postganglionic sympathetic nerve was isolated under a surgical microscope. The renal sympathetic nerve was cut distally to ensure that afferent activity was not recorded. The ABP, HR and renal sympathetic nerve activity (RSNA) were recorded using a 1401-PLUS analogue-to-digital converter and Spike2 system (Cambridge Electronic Design, Cambridge, UK). After the brain was exposed, a microinjection pipette (tip diameter 20-30 μm) was advanced into the PVN in accordance with the stereotactic co-ordinates: 1.6-2.0 mm caudal to the bregma, 0.5 mm lateral to the midline and 7.0-7.5 mm ventral to the dura. The microinjection was performed using a Nanoject II (Drummond Scientific Company) and monitored using a surgical microscope as described previously (Li & Pan, 2006, 2007; Qiao et al. 2017). […] At the end of each experiment, the electrical background noise was measured after the proximal end of renal nerve was crushed at the end of each experiment. To determine the location of the injection site and diffusion of the drugs in the PVN, 5% rhodamine-labelled fluorescent microspheres (0.04 μm; Molecular Probes) were included in the injection solution. Rats were excluded from the data analysis if the microinjections were misplaced outside the PVN.

[6] = paclitaxel-treated rats, AP5 50 μM, pregabalin 20 μM, peptides 1 μM
[7] = vehicle-treated rats, AP5 50 μM, pregabalin 20 μM, peptides 1 μM

Row | Compound | MCAO-induced apoptotic signaling (cleaved caspase-3) [1] | amplitude of puff NMDA currents of labeled PVN neurons ([2]; Ang II 2 μmol/L for 30-60 min) | baseline frequency of mEPSCs of labeled PVN neurons ([2]; Ang II 2 μmol/L for 30-60 min) | reduced PPR of evoked EPSCs ([3]; paclitaxel-treated rats) | increased amplitude of evoked monosynaptic EPSCs [3, 6] | increased frequency of mEPSCs of lamina II neurons [3, 6] | PPR of evoked EPSCs ([3]; vehicle-treated rats) | amplitude of evoked monosynaptic EPSCs [3, 7] | frequency of mEPSCs of lamina II neurons [3, 7] | VACC (N-type Ca2+ channel) currents [4] | VACC (N-type Ca2+ channel) currents ([4]; listed as α2δ-1 Tat peptide) | ABP and RSNA ([5]; 50 nL bilaterally into the PVN) | duration of the effect on the mean ABP and RSNA ([5]; 50 nL into the PVN) | effect of Ang II on mEPSC frequency in pretreated slices ([2]; losartan 2 μmol/L, pregabalin 20 μmol/L, peptides 1 μmol/L) | effect of Ang II on puff NMDA currents in pretreated slices ([2]; losartan 2 μmol/L, pregabalin 20 μmol/L, peptides 1 μmol/L, 30 min)
1 | NCC1(CC(=O)O)CCCCC1 [gabapentin] | suppresses | – | – | – | – | – | – | – | – | – | – | – | – | – | –
2 | Ang II: angiotensin II, obtained from Sigma (DRVYIHPF; Angiotensin-2; UniProt P01019 25-32, looked up) | – | markedly increased | significantly increased | – | – | – | – | – | – | – | – | – | – | – | –
3 | YGRKKRRQRRRVSGLNPSLWSIFGLQFILLWLVSGSRHYLW (a2d1 peptide) [α2δ-1Tat peptide, 30-amino-acid peptide mimicking the C-terminal domain of α2δ-1 fused to the cell-penetrating peptide Tat] | suppresses | – | – | fully reversed | completely reversed | completely normalized | had no effect | did not affect | neither incubation with α2δ-1Tat peptide nor bath application of AP5 had any effect | no effect | had no significant effect | significantly decreased | more than 60 min | failed to increase | had no effect
